According to article PMC3553952 (Nucleic Acids Research, 2012):

T1: Pab-aCPSF1 (Pyrococcus abyssi, UniProt Q9V0P0 1-648)
T1 sequence: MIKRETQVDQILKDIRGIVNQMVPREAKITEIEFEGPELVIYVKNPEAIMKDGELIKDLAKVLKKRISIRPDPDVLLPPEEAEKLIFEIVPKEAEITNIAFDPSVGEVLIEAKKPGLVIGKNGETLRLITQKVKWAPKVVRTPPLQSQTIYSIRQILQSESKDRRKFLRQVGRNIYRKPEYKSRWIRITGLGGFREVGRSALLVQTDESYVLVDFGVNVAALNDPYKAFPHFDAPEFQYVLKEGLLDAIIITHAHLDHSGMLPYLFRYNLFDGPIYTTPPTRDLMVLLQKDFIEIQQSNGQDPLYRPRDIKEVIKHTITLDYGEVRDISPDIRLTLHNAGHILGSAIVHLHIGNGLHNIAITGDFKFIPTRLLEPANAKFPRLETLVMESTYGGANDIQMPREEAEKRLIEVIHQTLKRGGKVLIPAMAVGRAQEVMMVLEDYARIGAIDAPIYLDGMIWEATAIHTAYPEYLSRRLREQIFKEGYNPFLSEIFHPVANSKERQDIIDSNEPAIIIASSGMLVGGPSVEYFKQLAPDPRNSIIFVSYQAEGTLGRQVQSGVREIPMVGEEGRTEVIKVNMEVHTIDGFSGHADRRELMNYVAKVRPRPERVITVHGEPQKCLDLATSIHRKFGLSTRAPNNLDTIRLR

B1: Pab-aCPSF1ΔKH (variant missing the first 179 residues of Pab-aCPSF1) (domain or fragment, Pyrococcus abyssi, UniProt Q9V0P0 180-648, looked up)
chain: EYKSRWIRITGLGGFREVGRSALLVQTDESYVLVDFGVNVAALNDPYKAFPHFDAPEFQYVLKEGLLDAIIITHAHLDHSGMLPYLFRYNLFDGPIYTTPPTRDLMVLLQKDFIEIQQSNGQDPLYRPRDIKEVIKHTITLDYGEVRDISPDIRLTLHNAGHILGSAIVHLHIGNGLHNIAITGDFKFIPTRLLEPANAKFPRLETLVMESTYGGANDIQMPREEAEKRLIEVIHQTLKRGGKVLIPAMAVGRAQEVMMVLEDYARIGAIDAPIYLDGMIWEATAIHTAYPEYLSRRLREQIFKEGYNPFLSEIFHPVANSKERQDIIDSNEPAIIIASSGMLVGGPSVEYFKQLAPDPRNSIIFVSYQAEGTLGRQVQSGVREIPMVGEEGRTEVIKVNMEVHTIDGFSGHADRRELMNYVAKVRPRPERVITVHGEPQKCLDLATSIHRKFGLSTRAPNNLDTIRLR
B2: sR47MutCG (structured_RNA)
RNA: GAUGAAGAUGAUGAGCUCGGCAGGUCCUGAGGAGUGAUGAGGAUCUGCUGAGUGCUGAUUCACCUU
B3: sR47Mut21U (structured_RNA)
RNA: GAUGAAGAUGAUGAGCUCGGUAGGUCCUGAGGAGUGAUGAGGAUCUUGAGUGCUGAUUCACCUU

Experiments:
[1] = target: the molecule itself; experiment: SEC
[2] = target: T1, Pab-aCPSF1; experiment: EMSA

Binder	stoichiometry N [1]	binding result [2]
B1	2	–
B2	–	binds
B3	–	binds
